Consider 1 molecule from paper PMC6293271, “Bactericidal/Permeability-Increasing Protein Is an Enhancer of Bacterial Lipoprotein Recognition” (Frontiers in Immunology, 2018).

Assay [1] deals with HEK293T cells expressing TLR2 and CD14. Briefly: Stimulation of HEK293T cells transfected with human TLR2 and CD14, IL-8 ELISA. Format: cell-based. Conditions: HEK293T expressing TLR2 and CD14, (R)-Pam3CSK4 ± BPI, 24 h. As for the experimental part:
HEK293T cells were transfected using the calcium phosphate mediated method according to a published protocol ([45]). Transfections were performed using plasmid vectors for human TLR2 and human CD14 (both a kind gift of Carsten Kirschning, University of Duisburg-Essen, Germany) at concentrations of 0.4 and 0.05 μg/ml, respectively. A GFP encoding plasmid (0.4 μg/ml) was used as control. For stimulation, transfected HEK293T cells were cultured at 2 × 10^5 cells/ml in 96-well plates and stimulated with (R)-Pam3CSK4 ± BPI. After 24 h, supernatants were collected and analyzed for secretion of IL-8 by ELISA (DuoSet® ELISA human CXCL8/IL-8, R&D, Minneapolis, MN, USA).
(In general: ELISA stands for enzyme-linked immunosorbent assay.)

The subject of a further assay is PBMCs. As to the kind of experiment: Stimulation of human PBMCs, cytokine ELISA of supernatants. The settings on record: for TNFα secretion: 18 h. Format: cell-based. As for the experimental part: After informed consent, blood was drawn from healthy male volunteers using heparinized blood collection tubes (Li-Heparin-Gel-Monovette, Sarstedt, Nümbrecht, Germany) and diluted in RPMI 1640 (Biochrom, Berlin, Germany) at a ratio of 1:1.5. The blood was centrifuged in leucosep tubes containing Ficoll® Paque plus (Oxford Immunotec, Abingdon, Great Britian) at 1,000 × g for 10 min. The interphase containing the leukocytes was collected and subsequently washed twice with RPMI 1640. The pellet was resuspended in AIM V® Medium (Thermo Fisher Scientific, Waltham, MA, USA), counted and cultivated in 96-well plates for 4 h (1 × 10^5/100 μl). Then cells were stimulated with the indicated compounds in the presence or absence of BPI. The supernatants were collected after 18 h for determination of cytokine concentration by ELISA according to the manufacturer's instructions (OptEIA^TM Human TNFα ELISA Set and OptEIA^TM Human IL6 ELISA, BD Biosciences, Heidelberg, Germany; DuoSet® ELISA human CXCL8/IL-8, R&D, Minneapolis, MN, USA).

B1: rBPI: recombinant human BPI (aa 32-487) with C-terminal FLAG Tag expressed in HEK293T cells (protein)
chain: VNPGVVVRISQKGLDYASQQGTAALQKELKRIKIPDYSDSFKIKHLGKGHYSFYSMDIREFQLPSSQISMVPNVGLKFSISNANIKISGKWKAQKRFLKMSGNFDLSIEGMSISADLKLGSNPTSGKPTITCSSCSSHINSVHVHISKSKVGWLIQLFHKKIESALRNKMNSQVCEKVTNSVSSELQPYFQTLPVMTKIDSVAGINYGLVAPPATTAETLDVQMKGEFYSENHHNPPPFAPPVMEFPAAHDRMVYLGLSDYFFNTAGLVYQEAGVLKMTLRDDMIPKESKFRLTTKFFGTFLPEVAKKFPNMKIQIHVSASTPPHLSVQPTGLTFYPAVDVQAFAVLPNSSLASLFLIGMHTTGSMEVSAESNRLVGELKLDRLLLELKHSNIGPFPVELLQDIMNYIVPILVLPRVNEKLQKGFPLPTPARVQLYNVVLQPHQNFLLFGADVVYK
modifications: labelled with NT647 (NHS labelling kit) in the MST experiments only; left off: HA signal peptide, N-terminal, state not stated | FLAG, C-terminal, state not stated
notes: recombinant human BPI (aa 32-487) with C-terminal FLAG Tag expressed in HEK293T cells
For B1, in assay [1], the “enhancement of immune stimulation of bLPs (IL-8)” value is “not sufficient to enhance”. The TNFα secretion result in the assay with PBMCs (PBMCs stimulated with (R)-FSL-1, increasing rBPI concentration) is “gradually enhanced”; with PBMCs (PBMCs stimulated with (R)-Pam3CSK4, increasing rBPI concentration), “gradually enhanced”. Also, the “TNFα, IL-6, and IL-8 secretion” value in the assay with PBMCs (PBMCs stimulated with lysate of S. pneumoniae D39Δcps, seven donors, BPI 500 nM) was “remarkable increase”; in the assay on PBMCs (PBMCs stimulated with lysates of S. aureus 113, BPI 500 nM), “also increased”. In addition, in the assay with PBMCs (PBMCs, BPI incubated with LTA SPΔlgt compared to LTA SPΔlgt alone), the “secretion of TNFα” value is “increased secretion of TNFα”.
